The target in this experiment is HLA-A2.1 heavy chain with I125-labeled beta2-microglobulin (heterotrimer complex assay) (human). Nature of the experiment: dissociation of I125-labeled beta2-microglobulin from heavy chain/peptide/beta2m complex, HPLC gel filtration.

In turn, “HTLV-1 Tax peptide (aa 11-19) (from UniProt P03409 11-19) (peptide; other documents disagree on this pair)” displayed a T1/2 (binding half-life) of 133 h.

The record behind these values is patent publication US20060045881A1, “Anti-cancer vaccines” (Board of Regents, The University of Texas System, priority 2004, published 2006).
